Reference: patent publication US20220177583A1 (University of California, published 2022)

Tests used:
[1] = target: T1, human CLDN6, endogenously expressed on cancer cell lines (human, UniProt P56747 1-220); assay: FACS dose curve, labelled mAb, ARK2 cells
T1 construct: also called Endogenous CLDN6+; CLDN6 on ARK2, OVCA429, UMUC4 cells
T1 sequence: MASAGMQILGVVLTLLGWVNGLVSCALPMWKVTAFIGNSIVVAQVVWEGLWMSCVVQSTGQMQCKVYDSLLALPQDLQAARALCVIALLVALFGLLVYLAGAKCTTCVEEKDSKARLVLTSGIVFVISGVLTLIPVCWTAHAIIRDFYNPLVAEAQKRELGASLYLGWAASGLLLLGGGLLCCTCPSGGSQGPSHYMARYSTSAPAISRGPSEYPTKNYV

[2] = target: T1, human CLDN6, endogenously expressed on …; assay: FACS dose curve, labelled mAb, OVCA429 cells
[3] = target: T2, mouse CLDN6 fused to GFP, expressed on engineered HEK293T cells (mouse, UniProt Q9Z262 1-219); assay: FACS dose curve, labelled mAb, HEK293T-CLDN6-mGFP (mouse) cells
T2 construct: whole, on cells; also called HEK293T-CLDN6-mGFP Artificial CLDN6+ (mouse); murine CLDN6; not shown: GFP tag
T2 sequence (looked up): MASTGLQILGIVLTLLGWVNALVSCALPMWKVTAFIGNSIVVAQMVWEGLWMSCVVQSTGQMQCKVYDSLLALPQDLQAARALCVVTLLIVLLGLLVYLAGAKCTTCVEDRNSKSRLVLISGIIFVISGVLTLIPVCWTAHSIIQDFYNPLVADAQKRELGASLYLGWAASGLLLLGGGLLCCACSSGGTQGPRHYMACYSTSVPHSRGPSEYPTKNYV

[4] = target: T1, human CLDN6, endogenously expressed on …; assay: flow cytometry on UMUC4 cells (Positive Cell Line), anti-human IgG Fc secondary antibody
[5] = target: T1, human CLDN6, endogenously expressed on …; assay: FACS, ARK2 cells, 0.3 ug Ab
[6] = target: T2, mouse CLDN6 fused to GFP, expressed on …; assay: FACS, 293T clone with mouse CLDN6
[7] = target: T1, human CLDN6, endogenously expressed on …; assay: FACS, ARK2 cells, 1.5 ug Ab

B1: AB14 (antibody, V domains shown)
VH: QVQLQQSGPELVRPGVSVKISCKGSGYTFTDYAMHWVKQSHAKSLEWIGVISTYSGNTNYNQKFQDKATMTVDKSSSTAYMALARLTSDDSAIYYCARRGDYSLYAMDYWGQGTSVTVSS
VL: DIVLTQSPASLAVSLGQRATISCKASQSVDYDGDNYVNWYQQKVGQPPKLLISAASNLESGIPARFSGSGSGTDFTLNIHPVEEEDAATYYCQQSNEDPFTFGSGTKLEIK
notes: Full-length IgG (ExpiCHO)
EC50 [1]: 1300 nM | EC50 [2]: 1660 nM

B2: AB13 (antibody, V domains shown)
VH: QVQLQQSGAELVRPGTSVKVSCKASGYAFSNYLIEWVKQRPGQGLEWIGVINPGSGGTNYNEKFKGKATMTADKSSSTAYMHLSNLTSEDSVVYFCARSYFGRSYPYTMDYWGQGTSVTVSS
VL: EIVLTQSPTTMAASPGEKITITCSASSSISSNYLHWYQQKPGFSPKLLIYRTSNLASGVPARFSGSGSGTSYSLTIGTMEAEDVATYYCQQGSSIPLTFGAGTKLELK
notes: Full-length IgG (ExpiCHO)
EC50 [1]: 1150 nM | EC50 [2]: 2290 nM

B3: AB9 (antibody, V domains shown)
VH: EVQLQQSGPELVKPGASVKMSCKASGYRFTDYNMHWVKQSHGKSLEWIGYINPNNGGTNYNQNFKGKATLTVNKSSSTAYMELRSLTSEDSAAYYCARDYLYFFDCWGQGTTLTVSS
VL: DIQMTQSPASQSASLGESVTITCLASQTIGTWLAWYQQKPGKSPQLLIYAAASLADGVPSRFSGSGSGTRFSFKISSLQAEDFVSYYCQQLYSIPRTFGGGTKLEIK
notes: Full-length IgG (ExpiCHO)
EC50 [1]: 1140 nM | EC50 [2]: 1160 nM

B4: AB2 (antibody, V domains shown)
VH: EVKLEESGGGLVQPGGSMKLSCVASGFTFSDYWMNWVRQSPEKGLEWVAQIRLKSDNYATHYAESVKGRFTISRDDSKRSVYLQMNNLRAEDTGTYYCNDGPPSGCWGQGTTLIVSS
VL: DIQMTQSPASLSASVGETVTITCRISENIYSYLAWYQQKQGKSPQLLVYNAKILVEGVPSRFSGSGSGTQFSLKINSLQPEDFGNYYCQHHYTVPWTFGGGTKLEIK
notes: Full-length IgG (ExpiCHO)
EC50 [3]: ≥ 5000 nM | EC50 [1]: 1360 nM | EC50 [2]: 912 nM

B5: AB3 (antibody, V domains shown)
VH: EVKLEESGGGLVQPGGSMKLSCVASGFTFSNYWMNWVRQSPEKGLEWVAQIRLKSDNYATHYAESVKGRFTISRDDSKRSVYLQMNNLRAEDTGTYYCNDGPPSGCWGQGTTLIVSS
VL: DIQMTQSPASLSASVGETVTITCRISENIYSYLAWYQQKQGKSPQLLVYNAKILVEGVPSRFSGSGSGTQFSLKINSLQPEDFGNYYCQHHYTVPWTFGGGTKLEIK
notes: Full-length IgG (ExpiCHO)
EC50 [3]: 2490 nM | EC50 [1]: 1650 nM | EC50 [2]: 1100 nM

B6: AB3-7 conjugated to MC-VC-PAB-MMAE (D4 technology) (antibody, V domains shown)
VH: EVQLLESGGGLVQPGGSMRLSCAASGFTFSNYWMNWVRQAPGKGLEWVAQIRLKSDNYATHYADSVKGRFTISRDDSKNTVYLQMNSLRAEDTGVYYCNDGPPSGSWGQGTLLTVSS
VL: DIQMTQSPSSLSASVGDRVTITCRISENIYSYLAWYQQKPGKAPKLLVYNAKILVEGVPSRFSGSGSGTDFTLTISSLQPEDFGTYYCQHHYTVPWTFGQGTKLEIK
modifications: MC-VC-PAB-MMAE conjugated to the antibody, substantially 4 drugs per antibody (D4); sites not stated
notes: Antibody-drug conjugate of humanized AB3-7; also called CLDN6 ADC; ADC-23 (D4 technology)
flow cytometry signal at 0.1µg Ab/Sample [4]: 9450 | flow cytometry signal at 1µg Ab/Sample [4]: 25900

B7: AB3-7 conjugated to MC-GGFG-MMAE (D4 technology) (antibody, V domains shown)
VH: EVQLLESGGGLVQPGGSMRLSCAASGFTFSNYWMNWVRQAPGKGLEWVAQIRLKSDNYATHYADSVKGRFTISRDDSKNTVYLQMNSLRAEDTGVYYCNDGPPSGSWGQGTLLTVSS
VL: DIQMTQSPSSLSASVGDRVTITCRISENIYSYLAWYQQKPGKAPKLLVYNAKILVEGVPSRFSGSGSGTDFTLTISSLQPEDFGTYYCQHHYTVPWTFGQGTKLEIK
modifications: MC-GGFG-MMAE conjugated to the antibody (D4); sites not stated
notes: Antibody-drug conjugate of humanized AB3-7; also called CLDN6 ADC
flow cytometry signal at 0.1µg Ab/Sample [4]: 8790 | flow cytometry signal at 1µg Ab/Sample [4]: 31600

B8: AB3-7 conjugated to MC-GGFG-DXD (antibody, V domains shown)
VH: EVQLLESGGGLVQPGGSMRLSCAASGFTFSNYWMNWVRQAPGKGLEWVAQIRLKSDNYATHYADSVKGRFTISRDDSKNTVYLQMNSLRAEDTGVYYCNDGPPSGSWGQGTLLTVSS
VL: DIQMTQSPSSLSASVGDRVTITCRISENIYSYLAWYQQKPGKAPKLLVYNAKILVEGVPSRFSGSGSGTDFTLTISSLQPEDFGTYYCQHHYTVPWTFGQGTKLEIK
modifications: MC-GGFG-DXD conjugated to the antibody; sites not stated
notes: as for B7
flow cytometry signal at 0.1µg Ab/Sample [4]: 10500 | flow cytometry signal at 1µg Ab/Sample [4]: 32800

B9: AB3-7 conjugated to MC-VC-PAB-DXD (antibody, V domains shown)
VH: EVQLLESGGGLVQPGGSMRLSCAASGFTFSNYWMNWVRQAPGKGLEWVAQIRLKSDNYATHYADSVKGRFTISRDDSKNTVYLQMNSLRAEDTGVYYCNDGPPSGSWGQGTLLTVSS
VL: DIQMTQSPSSLSASVGDRVTITCRISENIYSYLAWYQQKPGKAPKLLVYNAKILVEGVPSRFSGSGSGTDFTLTISSLQPEDFGTYYCQHHYTVPWTFGQGTKLEIK
modifications: MC-VC-PAB-DXD conjugated to the antibody; sites not stated
notes: as for B7
flow cytometry signal at 0.1µg Ab/Sample [4]: 10800 | flow cytometry signal at 1µg Ab/Sample [4]: 32600

B10: AB3-7 conjugated to CL2A-SN38 (conventional) (antibody, V domains shown)
VH: EVQLLESGGGLVQPGGSMRLSCAASGFTFSNYWMNWVRQAPGKGLEWVAQIRLKSDNYATHYADSVKGRFTISRDDSKNTVYLQMNSLRAEDTGVYYCNDGPPSGSWGQGTLLTVSS
VL: DIQMTQSPSSLSASVGDRVTITCRISENIYSYLAWYQQKPGKAPKLLVYNAKILVEGVPSRFSGSGSGTDFTLTISSLQPEDFGTYYCQHHYTVPWTFGQGTKLEIK
modifications: CL2A-SN38 conjugated to the antibody, heterogeneous (conventional); sites not stated
notes: as for B7
flow cytometry signal at 0.1µg Ab/Sample [4]: 9990 | flow cytometry signal at 1µg Ab/Sample [4]: 33800

B11: AB3-7 (antibody, V domains shown)
VH: EVQLLESGGGLVQPGGSMRLSCAASGFTFSNYWMNWVRQAPGKGLEWVAQIRLKSDNYATHYADSVKGRFTISRDDSKNTVYLQMNSLRAEDTGVYYCNDGPPSGSWGQGTLLTVSS
VL: DIQMTQSPSSLSASVGDRVTITCRISENIYSYLAWYQQKPGKAPKLLVYNAKILVEGVPSRFSGSGSGTDFTLTISSLQPEDFGTYYCQHHYTVPWTFGQGTKLEIK
notes: Humanized; also called humanized AB3-7; AB23
flow cytometry signal at 0.1µg Ab/Sample [4]: 8820 | flow cytometry signal at 1µg Ab/Sample [4]: 27300 | FACS signal [5]: 36000 | FACS signal [6]: 56100 | FACS signal [7]: 90400

B12: AB3-7 conjugated to CL2A-SN38 (D4 technology) (antibody, V domains shown)
VH: EVQLLESGGGLVQPGGSMRLSCAASGFTFSNYWMNWVRQAPGKGLEWVAQIRLKSDNYATHYADSVKGRFTISRDDSKNTVYLQMNSLRAEDTGVYYCNDGPPSGSWGQGTLLTVSS
VL: DIQMTQSPSSLSASVGDRVTITCRISENIYSYLAWYQQKPGKAPKLLVYNAKILVEGVPSRFSGSGSGTDFTLTISSLQPEDFGTYYCQHHYTVPWTFGQGTKLEIK
modifications: CL2A-SN38 conjugated to the antibody (D4); sites not stated
notes: as for B7
flow cytometry signal at 0.1µg Ab/Sample [4]: 9140 | flow cytometry signal at 1µg Ab/Sample [4]: 34600

B13: AB18 (antibody, V domains shown)
VH: QVQLKQSGPELEKPGASVKISCKASGYSFTGYNMNWVKQSNGKSLEWIGNIDPYYGGSTYNQKFTGKATLTVDKSSSTAYMQLKSLTSEDSAVYYCARERSGYVFSAMDYWGQGTSVTVSS
VL: NIMMTQSPSSLAVSAGEKVTMSCKSSQSVLFSSNQKNYLAWYQQKPGQSPRLLIYWASTRESGVPDRFTGSGSGTDFTLTISNVQAEDLAVYYCHQYLSSRTFGAGTKLELK
notes: Full-length IgG (ExpiCHO)
EC50 [1]: 1350 nM | EC50 [2]: 2440 nM
